Measured values from patent publication US20260083749A1, “ANTI-CD123 IMMUNOCONJUGATES FOR THE TREATMENT OF ACUTE MYELOID LEUKEMIA” (ImmunoGen, Inc., priority 2024, published 2026).

Columns and labels:
AML patients = conditions: published for other AML therapies; cited from earlier work
patients with R/R AML [1] = experiment: Phase 1/2 trial of pivekimab sunirine monotherapy Q3W: safety (TEAEs, SAEs, DLTs); type: in vivo, human
Procedure: (§1) Patients with AML were enrolled into a phase 1/2 clinical trial of pivekimab sunirine. Key inclusion and exclusion criteria were as follows.
(§2) Patients with R/R AML (n=68) were treated with pivekimab sunirine once every 3 weeks (Q3W; on day 1 of a 3-week cycle).
(§3) The trial included a dose-escalation phase and a dose-expansion phase. All patients in both phases received intravenous doses of pivekimab sunirine on day 1 of a 21-day cycle as a <30-minute outpatient infusion. Lyophilized pivekimab sunirine was reconstituted using […] of water for injection. Planned treatment consisted of 2 cycles (6 weeks). Additional cycles, up to 10 total, were administered for patients deriving benefit from this regimen. CNS prophylactic intrathecal chemotherapy was administered. Patients received 8 mg dexamethasone on the day before any pivekimab sunirine dose. Patients also received 25-50 mg diphenhydramine, 325-650 mg acetaminophen or paracetamol, and 8 mg dexamethasone before each pivekimab sunirine infusion.
Following preparation, IMGN632 (or pivekimab sunirine (pvek)) was administered by IV syringe pump. Overall length of infusion was varied depending on dose and patient tolerability. Initially, the study drug was administered at a rate of 0.165 mg/min ([…]); and, after 30 minutes, if well tolerated, the rate was increased to 0.33 mg/min. Subsequent infusions were delivered at the highest tolerated rate. Before and following infusion, the line was flushed with 5% dextrose to ensure delivery of the full dose. Patients were carefully observed during each infusion and vital signs were monitored. Patients remained in the clinic under observation for 4 hours after the first infusion and for at least 1 hour after each subsequent infusion.
(§4) In the dose-escalation phase, patients received doses of pivekimab sunirine starting at 0.015 mg/kg with five escalations (n=38): 0.015 mg/kg (n=3), 0.045 mg/kg (n=9), 0.09 mg/kg (n=12), […] (n=7), 0.3 mg/kg (n=5), and 0.45 mg/kg (n=2).
Based on nonclinical pharmacology, clinical safety, anti-leukemia activity, PK, and PD assessments during the dose-escalation phase, two cohorts were established for the dose expansion phase. • Cohort 1: Patients with relapsed AML received 0.045 mg/kg (escalation dose level 2) Q3W (n=20). • Cohort 2: Patients with relapsed or refractory (to non-intense therapies) AML received 0.09 mg/kg (escalation dose level 3) Q3W (n=10).
Safety was assessed by treatment-emergent adverse events (TEAEs), serious adverse events (SAEs), and dose-limiting toxicities (DLTs). The median duration of treatment in participants who received […] pivekimab sunirine Q3W (n=29) was 9 weeks (range, 3-110).

AML xenografts = conditions: background statement; cited from earlier work
[2] = tested on: normal marrow progenitors; conditions: background statement; cited from earlier work
patients with R/R AML [3] = experiment: Phase 1/2 trial of pivekimab sunirine monotherapy Q3W: anti-leukemia responses; type: in vivo, human; conditions: for Median time to first CCR (CR/CRh/CRi): range
From the text: as §1
• Patients ≥18 years old • R/R AML • Confirmation of CD123 positivity on flow cytometry or immunohistochemistry (IHC). Patients who received prior CD123-targeting agents were allowed as long as the blasts still had detectable CD123 expression. • Eastern Cooperative Oncology Group (ECOG) performance status ≤1. […] Patients with a PCHM were eligible as long as no current therapy was still required for the second malignancy (e.g., MDS, CMML). Patients with a nonhematologic prior malignancy were in remission from the prior malignancy.
as §2, §3, §4
Anti-leukemia responses were assessed per International Working Group (IWG) criteria 2003 (Cheson B D, et al. Revised recommendations of the International Working Group for Diagnosis, Standardization of Response Criteria, Treatment Outcomes, and Reporting Standards for Therapeutic Trials in Acute Myeloid Leukemia. J Clin Oncol 2003; 21(24): 4642-9) and European LeukemiaNet (ELN) response criteria 2017 (Dohner H, et al. Diagnosis and management of AML in adults: 2017 ELN recommendations from an international expert panel. Blood 2017; 129(4): 424-47) as composite complete remission (CCR) rate (defined as CR without minimal residual disease [CRMRD−]+CR+CRh+CR with incomplete recovery CRi]). Overall response rate (ORR) was defined as CRMRD−+CR+CRh+CRi+morphologic leukemia-free state (MLFS) +partial response (PR). Duration of overall response (DOR) was also evaluated.
Response assessments were performed in bone marrow aspirates (BMAs) for differential assessments taken on Cycle 1, Day 21±7 days. Subsequent BMAs were performed approximately every 1 to 2 cycles as clinically indicated, and at the 30-Day Follow-up visit. Data was also collected in the event BMAs were performed more frequently. No repeat bone marrow was necessary if lack of response or PD could be unequivocally diagnosed from peripheral blood tests or if the bone marrow test was considered noncontributory at any time point.

patients with R/R AML [4] = experiment: Phase 1/2 trial of pivekimab sunirine monotherapy Q3W: safety (TEAEs, SAEs, DLTs); type: in vivo, human; conditions: N= 3/91; dose levels four- to ten-fold higher per cycle than the RP2D
[5] = RP2D, prior intensive therapy, n= 5/22
[6] = RP2D, prior venetoclax exposure, n= 2/14

Q: With `CCc1nc(C(N)=O)c(Nc2ccc(N3CCC(N4CCN(C)CC4)CC3)c(OC)c2)nc1NC1CCOCC1` [gilteritinib] as the molecule, how does the “Incidence of febrile neutropenia, published” value (AML patients) read?
A: 46%

Q: With `N#Cc1ccnc(N2C(=O)CC[C@H]2C(=O)N(c2cncc(F)c2)[C@H](C(=O)NC2CC(F)(F)C2)c2ccccc2Cl)c1` [ivosidenib] as the molecule, how does the “Incidence of febrile neutropenia, published” value (AML patients) read?
A: 29%

B1: pivekimab sunirine (conjugate, chains of the INN, looked up)
VH: QVQLVQSGAEVKKPGASVKVSCKASGYIFTSSIMHWVRQAPGQGLEWIGYIKPYNDGTKYNEKFKGRATLTSDRSTSTAYMELSSLRSEDTAVYYCAREGGNDYYDTMDYWGQGTLVTVSS
VL: EIQMTQSPSSLSASVGDRVTITCRASQDINSYLSWFQQKPGKAPKTLIYRVNRLVDGVPSRFSGSGSGNDYTLTISSLQPEDFATYYCLQYDAFPYTFGQGTKVEIK
modifications: sunirine payload (DNA-alkylating drug conjugate)
Q: Which “Prolonged neutropenia (grade 3) considered related to pivekimab sunirine (DLT)” value (patients with R/R AML [1]; 0.3 mg/kg after 2 cycles) does the source give for B1 here?
A: one

Q: What about the 30-day mortality rate (patients with R/R AML [1]; 2 deaths due to disease progression) of the same molecule?
A: 7%

Q: And the “Maximum tolerated dose (MTD)” value (patients with R/R AML [1]; 30-fold dose escalation, 0.015-[…] Q3W)?
A: no maximum tolerated dose (MTD) defined

Q: And the “Incidence of febrile neutropenia” value (patients with R/R AML [1]; all schedule A participants)?
A: 35%

Q: What about the “Reversible VOD possibly related to pivekimab sunirine (DLT)” value (patients with R/R AML [1]; grade 3, 0.18 mg/kg after 2 cycles, grade 4, […] during cycle 1) of the same molecule?
A: two

Q: What about the “Grade 4 IRRs” value (patients with R/R AML [1]; in vivo) of the same molecule?
A: no grade 4 IRRs occurred

Q: And the IRRs (patients with R/R AML [1]; mostly tachycardia and/or chills with the first dose, primarily grade 1-2)?
A: 31%

Q: And the “Participants who experienced DLTs” value (patients with R/R AML [1]; of the 68 participants, all doses)?
A: Three

Q: What about the “TEAEs leading to treatment discontinuation” value (patients with R/R AML [1]; seven of 68 participants) of the same molecule?
A: 10%

Q: And the “Antitumor activity in AML xenografts” value (AML xenografts)?
A: potent antitumor activity

Q: And the “Toxicity in normal marrow progenitors versus other DNA-targeting payloads” value [2]?
A: less toxicity in normal marrow progenitors

Q: And the “Best overall response CR, %” value (patients with R/R AML [3]; All Participants (n = 68))?
A: (3) %

Q: And the “Best overall response CR, No.” value (patients with R/R AML [3]; All Participants (n = 68))?
A: 2 No.

Q: What about the “Best overall response CRh, %” value (patients with R/R AML [3]; All Participants (n = 68)) of the same molecule?
A: (3) %

Q: And the “Best overall response CRh, No.” value (patients with R/R AML [3]; All Participants (n = 68))?
A: 2 No.

Q: And the “Best overall response CRi, %” value (patients with R/R AML [3]; All Participants (n = 68))?
A: (6) %

Q: What about the “Best overall response CRi, No.” value (patients with R/R AML [3]; All Participants (n = 68)) of the same molecule?
A: 4 No.

Q: What about the “Best overall response MLFS, %” value (patients with R/R AML [3]; All Participants (n = 68)) of the same molecule?
A: (3) %

Q: And the “Best overall response MLFS, No.” value (patients with R/R AML [3]; All Participants (n = 68))?
A: 2 No.

Q: What about the “Best overall response PD, %” value (patients with R/R AML [3]; All Participants (n = 68)) of the same molecule?
A: (24) %

Q: What about the “Best overall response PD, No.” value (patients with R/R AML [3]; All Participants (n = 68)) of the same molecule?
A: 16 No.

Q: What about the “Best overall response PR, %” value (patients with R/R AML [3]; All Participants (n = 68)) of the same molecule?
A: (2) %

Q: What about the “Best overall response PR, No.” value (patients with R/R AML [3]; All Participants (n = 68)) of the same molecule?
A: 1 No.

Q: And the “Best overall response SD, %” value (patients with R/R AML [3]; All Participants (n = 68))?
A: (52) %

Q: And the “Best overall response SD, No.” value (patients with R/R AML [3]; All Participants (n = 68))?
A: 35 No.

Q: What about the “CCR rate (CR + CRh + CRi), %” value (patients with R/R AML [3]; All Participants (n = 68)) of the same molecule?
A: (12) %

Q: What about the “CCR rate (CR + CRh + CRi), No.” value (patients with R/R AML [3]; All Participants (n = 68)) of the same molecule?
A: 8 No.

Q: And the “Median duration of CR” value (patients with R/R AML [3]; All Participants (n = 68))?
A: 2.2 mo

Q: And the “Median duration of remission” value (patients with R/R AML [3]; All Participants (n = 68))?
A: 2.0 mo

Q: What about the “ORR (CR + CRh + CRi + MLFS + PR), No.” value (patients with R/R AML [3]; All Participants (n = 68)) of the same molecule?
A: 11 No.

Q: And the “Anti-leukemia activity versus CD123 expression” value (patients with R/R AML [3]; FIG. 3)?
A: anti-leukemia activity regardless of CD123 expression

Q: And the ORR (patients with R/R AML [3]; RP2D, de novo (nonsecondary) AML, n= 6/18)?
A: 33%

Q: And the CCR (patients with R/R AML [3]; RP2D, prior HSCT, n= 3/9)?
A: 33%

Q: What about the ORR (patients with R/R AML [3]; RP2D, prior HSCT, n= 3/9) of the same molecule?
A: 33%

Q: What about the CCR (patients with R/R AML [3]; [5]) of the same molecule?
A: 23%

Q: And the ORR (patients with R/R AML [3]; [5])?
A: 23%

Q: What about the CCR (patients with R/R AML [3]; [6]) of the same molecule?
A: 14%

Q: What about the ORR (patients with R/R AML [3]; [6]) of the same molecule?
A: 14%

Q: And the CCR (patients with R/R AML [3]; RP2D, two prior lines, n= 3/15)?
A: 20%

Q: And the ORR (patients with R/R AML [3]; RP2D, two prior lines, n= 4/15)?
A: 27%

Q: What about the CCR (patients with R/R AML [3]; RP2D, venetoclax-naive, n= 3/15) of the same molecule?
A: 20%

Q: And the ORR (patients with R/R AML [3]; RP2D, venetoclax-naive, n= 4/15)?
A: 27%

Q: What about the “Median duration of CCR (CR/CRh/CRi)” value (patients with R/R AML [3]; RP2D, 95% CI 1.64-not estimable) of the same molecule?
A: 2.27 months

Q: What about the “Median time to first CCR (CR/CRh/CRi)” value (patients with R/R AML [3]; RP2D, 0.79-3.61) of the same molecule?
A: 2.04 months

Q: And the “Participants with decrease in bone marrow blasts” value (patients with R/R AML [3]; all dose levels and cohorts, n= 31/68)?
A: 46%

Q: And the “Median duration of CCR (CR/CRh/CRi)” value (patients with R/R AML [3]; all schedule A doses, 95% CI 1.02-3.55)?
A: 2.22 months

Q: And the “Median time to first CCR (CR/CRh/CRi)” value (patients with R/R AML [3]; all schedule A doses, 0.46-4.37)?
A: 1.76 months

Q: And the “Participants with >100% increase in BM blasts” value (patients with R/R AML [3]; cohort 1 and cohort 2 R/R AML, FIG. 1)?
A: 11 participants

Q: What about the “Individual responses in participants with FLT3-ITD mutations” value (patients with R/R AML [3]; in vivo) of the same molecule?
A: ¼

Q: What about the “Individual responses in participants with IDH1 mutations” value (patients with R/R AML [3]; in vivo) of the same molecule?
A: ⅓

Q: And the “Reversible VOD” value (patients with R/R AML [4])?
A: 3%
